Results taken from patent US20130224191A1, “NOTUM PROTEIN MODULATORS AND METHODS OF USE” (priority 2010, published 2013).

How the values were obtained:
Notum = target: T1, Notum (Homo sapiens, UniProt Q6P988); assay: 293.TCF assay with rhWnt3A, standard and preincubation protocol; format: cell-based
T1 sequence (Q6P988 20-496): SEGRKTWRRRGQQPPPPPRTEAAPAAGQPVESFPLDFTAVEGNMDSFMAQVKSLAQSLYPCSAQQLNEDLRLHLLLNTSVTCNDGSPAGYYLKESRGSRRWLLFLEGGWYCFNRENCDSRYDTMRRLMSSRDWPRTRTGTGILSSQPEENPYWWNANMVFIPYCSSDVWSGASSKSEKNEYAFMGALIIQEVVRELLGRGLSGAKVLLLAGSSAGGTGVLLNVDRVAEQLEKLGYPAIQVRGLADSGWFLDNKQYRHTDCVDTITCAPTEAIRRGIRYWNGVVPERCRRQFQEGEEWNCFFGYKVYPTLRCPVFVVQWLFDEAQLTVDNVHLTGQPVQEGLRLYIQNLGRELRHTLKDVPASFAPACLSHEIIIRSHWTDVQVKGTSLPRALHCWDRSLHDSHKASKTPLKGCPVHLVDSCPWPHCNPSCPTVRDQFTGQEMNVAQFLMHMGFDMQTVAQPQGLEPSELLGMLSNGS
Protocol: In order to determine the kinetics of Notum mediated antagonism of Wnt3A signaling, recombinant Notum alone or in the presence of SC2.D2.2 was preincubated with recombinant human Wnt3A (rhWnt3A) for 2 hours at 37° C., prior to addition of the complexes to 293.TCF cells. This resultant induction of luciferase by the rhWnt3A was compared to that observed using the standard protocol for the 293.TCF assay, in which Notum alone or Notum+SC2.D2.2 was added to the cells for two hours prior to the addition of rhWnt3A. […] Of interest however, is the preincubation of Notum and rhWnt3A prior to addition to the 293.TCF cells. In this case the response of the cells to rhWnt3A is reduced greatly (closed circles FIG. 27B).

[1] = target: T2, chimeric human/mouse Notum (Homo sapiens, UniProt Q6P988, A205S/A256S/E196D/E289D/E487K/H276R/H373G/H396Y/K251E/L360Q/L418F/L429M/L483M/M474V/N299S/P379Q/P480Q/Q248L/Q311K/R218K/R307Q/R361W/S193P/T277S/T284N/V280I/V301M/V434F/V452I/Y171H); assay: Epitope mapping ELISA, chimeric Notum; format: binding
T2 construct: human mature Notum protein (residues 19-144) fused to the mouse Notum (mouse residues 150-484); His tag; made in house
T2 sequence (Q6P988 with tags, fused parts or gaps Y171H/S193P/E196D/A205S/R218K/Q248L/K251E/A256S/H276R/T277S/V280I/T284N/E289D/N299S/V301M/R307Q/Q311K/L360Q/R361W/H373G/P379Q/H396Y/L418F/L429M/V434F/V452I/M474V/P480Q/L483M/E487K): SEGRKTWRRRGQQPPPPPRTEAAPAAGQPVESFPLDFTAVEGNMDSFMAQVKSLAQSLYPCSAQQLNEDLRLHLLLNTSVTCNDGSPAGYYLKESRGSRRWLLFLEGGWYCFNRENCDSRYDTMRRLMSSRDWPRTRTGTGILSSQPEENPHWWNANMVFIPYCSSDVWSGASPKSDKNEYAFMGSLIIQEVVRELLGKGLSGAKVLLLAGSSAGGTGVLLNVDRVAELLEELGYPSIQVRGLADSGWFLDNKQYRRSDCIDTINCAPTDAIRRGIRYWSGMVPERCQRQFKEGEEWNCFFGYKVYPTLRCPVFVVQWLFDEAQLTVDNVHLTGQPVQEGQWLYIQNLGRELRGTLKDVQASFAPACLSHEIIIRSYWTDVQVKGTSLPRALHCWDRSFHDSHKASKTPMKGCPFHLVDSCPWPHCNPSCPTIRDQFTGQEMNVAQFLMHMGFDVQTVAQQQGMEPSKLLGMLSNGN
Source text: To better understand the structural basis for the interaction of SC2.D2.2 with human Notum, a chimeric Notum protein was fabricated. This approach takes advantage of the fact that the orthologs are structurally related. To that end a chimeric Notum molecule composed of the N terminal of the human mature Notum protein (residues 19-144) fused to the mouse Notum (mouse residues 150-484) (genes both consistent with Example 7) was generated and expressed in a similar manner to that set forth in previous Examples. The BamHI restriction cleavage site in human Notum gene was used for construction of in-frame fusion Notum chimeric protein. An expression vector was then constructed containing the His tagged chimeric Notum sequence.
Binding of SC2.D2.2 and other mouse mAbs to purified Notum molecules generated from transient transfection of Human and Mouse Notum cDNAs were tested using ELISA assay with human Notum, mouse Notum and chimeric human/mouse Notum coated directly on ELISA plate. Binding of anti-Notum mAbs was detected with HRP-conjugated goat anti mouse antibody and followed by colorimetric horseradish peroxidase substrate (TMB substrate Thermo Scientific). The absorbance of each well of the ELISA plates was measured at 450 nm on a microplate autoreader.

[2] = target: T3, human Notum (recombinant or endogenous; construct not specified at the place of use) (human, UniProt Q6P988 20-496); assay: SPR (Biacore), antigen at 12.5 to 0.78125 nM, 1:1 Langmuir binding model
T3 construct: also called hNotum; human Notum protein
T3 sequence: T1 sequence (Q6P988 20-496)
Protocol: Binding characteristics for antibodies were assessed using antibody capture Biacore technology. Disassociation constant values Kd (koff/kₒₙ) were determined for selected antibodies. A Biacore 3000 (GE Healthcare) biosensor was used for surface plasmon resonance (SPR) kinetic measurements. Using purified antibody quantitative koff constants were derived through capture the antibody on the sensor surface. Anti-mouse IgG was immobilized on the CM5 surface of sensor chip using standard amine coupling chemistry. Each mAb was captured onto an anti-IgG surface before the antigen was injected over the immobilized antibody allowing the antibody-antigen interaction to be analyzed.
Three methods were used to characterize the affinity of humanized SC2.D2.2 relative to its analogous mAb with the murine variable region. First, binding signal was measured for a fixed amount of antibody probed against serial dilutions of antigen in an ELISA format. Measured signal levels were substantially similar (data not shown). Second, the affinity of murine SC2.D2.2 was measured by Biacore using surface plasmon resonance (SPR) to provide the results set forth in FIG. 32A. […] Long off-rates for this interaction made accurate determination of affinity through kinetics difficult. […]

B1: SC2.D2.2 (antibody, V domains shown)
VH: DVQLVESGGGLVQPGGSRKISCAASGFTFSSYGMHWVRQAPEKGLEWVAYISSSTVTTYYADTVKGRFTISRDNANNTLFLQMTSLRSEDTAMYYCSRQNWDGGYFDVWGAGTTVTVSS
VL: DIVLTQSLASLAVSLGQRATISCRASKSVSSSGYSYMHWYQQKPGQPPKLLIYLASNLESGVPARFSGSGSGTDFTLNIHPVEEEDAATYYCQHSRALPLTFGAGTKLELKR
notes: also called murine SC2.D2.2
- effect on response of cells to rhWnt3A (Notum; Notum complexed with antibody prior to preincubation with rhWnt3A, 2 hours at 37° C.): restores the sensitivity of the cells to rhWnt3A
- effect on Notum antagonism of rhWnt3A (Notum; standard protocol, 10 μg/mL antibody, 250 ng/mL rhWnt3A): blocks the ability of Notum to antagonize the rhWnt3A
- binding to Notum chimeric protein [1]: confirmed the binding
- location of epitope [1]: within the first 135 residues of the N terminus of the human Notum protein
- Kd [2]: < 0.1 nM
